# US20240052042A1 (Novartis, published 2024)
# T1: human NPR1 on CHO-K1 cells (human, UniProt P16066 33-1061)
# T1 sequence: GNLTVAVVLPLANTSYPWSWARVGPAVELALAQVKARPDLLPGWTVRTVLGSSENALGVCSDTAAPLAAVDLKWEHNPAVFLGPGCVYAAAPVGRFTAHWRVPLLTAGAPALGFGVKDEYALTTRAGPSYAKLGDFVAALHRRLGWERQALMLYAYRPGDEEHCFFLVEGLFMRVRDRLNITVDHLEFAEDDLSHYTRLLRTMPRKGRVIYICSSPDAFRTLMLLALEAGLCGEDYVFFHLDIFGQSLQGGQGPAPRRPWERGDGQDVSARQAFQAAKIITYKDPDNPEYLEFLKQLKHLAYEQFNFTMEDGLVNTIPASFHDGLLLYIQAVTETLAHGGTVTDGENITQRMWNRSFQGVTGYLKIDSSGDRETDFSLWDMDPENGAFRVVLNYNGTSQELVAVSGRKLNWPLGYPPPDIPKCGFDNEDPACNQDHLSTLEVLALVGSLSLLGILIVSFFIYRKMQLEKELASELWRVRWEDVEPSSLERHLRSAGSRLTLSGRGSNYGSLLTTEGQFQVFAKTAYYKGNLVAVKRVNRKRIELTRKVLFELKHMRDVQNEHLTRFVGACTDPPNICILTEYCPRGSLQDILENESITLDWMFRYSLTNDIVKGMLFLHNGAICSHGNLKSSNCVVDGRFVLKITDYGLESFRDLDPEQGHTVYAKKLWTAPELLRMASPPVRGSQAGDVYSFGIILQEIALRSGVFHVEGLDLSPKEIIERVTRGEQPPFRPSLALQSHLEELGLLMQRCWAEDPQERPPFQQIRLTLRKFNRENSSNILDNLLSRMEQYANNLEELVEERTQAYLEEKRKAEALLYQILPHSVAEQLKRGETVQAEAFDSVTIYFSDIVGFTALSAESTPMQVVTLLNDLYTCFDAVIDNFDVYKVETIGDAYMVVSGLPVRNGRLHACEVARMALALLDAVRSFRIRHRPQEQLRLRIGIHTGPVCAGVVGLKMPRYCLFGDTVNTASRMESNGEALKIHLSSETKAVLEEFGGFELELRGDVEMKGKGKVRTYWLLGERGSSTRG
# T2: human NPR3 (counter target) (human, UniProt P17342 27-481, limits assumed)
# T2 construct: Pannings used hNPR3-hFc; also called hNPR3; hNPR3-hFc
# T2 sequence (looked up): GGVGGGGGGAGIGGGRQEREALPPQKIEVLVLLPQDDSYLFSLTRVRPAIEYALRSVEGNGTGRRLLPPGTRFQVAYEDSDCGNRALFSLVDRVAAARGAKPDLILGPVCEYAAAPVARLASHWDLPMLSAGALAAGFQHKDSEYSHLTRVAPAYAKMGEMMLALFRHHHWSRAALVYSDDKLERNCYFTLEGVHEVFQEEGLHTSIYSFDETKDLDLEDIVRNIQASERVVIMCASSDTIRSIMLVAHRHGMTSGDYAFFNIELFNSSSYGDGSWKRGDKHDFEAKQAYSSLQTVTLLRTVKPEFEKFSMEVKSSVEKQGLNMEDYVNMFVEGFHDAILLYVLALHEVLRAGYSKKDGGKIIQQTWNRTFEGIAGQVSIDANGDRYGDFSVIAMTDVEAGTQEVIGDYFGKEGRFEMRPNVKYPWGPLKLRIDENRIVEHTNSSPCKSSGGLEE
# T3: human NPR3 in the presence of ANP (human, UniProt P17342 27-481; P01160 124-151, limits assumed)
# T3 construct: also called hNPR3 + 100 nM ANP
# T3 sequence (looked up): T2 sequence (looked up)
# T3 sequence (peptide, looked up): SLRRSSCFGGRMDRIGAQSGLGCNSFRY
# T4: human Natriuretic Peptide Receptor 1 (hNPR1) (human, UniProt P16066 33-473, limits assumed)
# T4 construct: pannings used NPR1-hFc; also called NPR1-hFc
# T4 sequence: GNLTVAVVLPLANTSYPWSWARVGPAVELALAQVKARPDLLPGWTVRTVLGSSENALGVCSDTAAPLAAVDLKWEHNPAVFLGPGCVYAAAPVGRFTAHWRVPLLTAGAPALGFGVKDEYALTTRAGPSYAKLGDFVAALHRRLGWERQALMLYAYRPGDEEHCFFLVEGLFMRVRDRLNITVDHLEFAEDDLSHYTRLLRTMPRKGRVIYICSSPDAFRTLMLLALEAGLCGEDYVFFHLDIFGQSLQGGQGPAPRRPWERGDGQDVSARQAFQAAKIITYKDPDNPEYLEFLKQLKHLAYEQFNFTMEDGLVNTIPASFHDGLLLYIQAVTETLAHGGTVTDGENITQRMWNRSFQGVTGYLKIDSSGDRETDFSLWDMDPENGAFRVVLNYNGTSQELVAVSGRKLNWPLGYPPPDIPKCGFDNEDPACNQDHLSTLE
# T5: hNPR1-ANP complex (human, UniProt P01160 124-151, limits assumed)
# T5 construct: hNPR1 antigen in the presence of ANP; also called hNPR1 + 100 nM ANP
# T5 sequence: T4 sequence
# T5 sequence (peptide): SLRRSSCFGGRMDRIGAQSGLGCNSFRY
# T6: rat NPR1 (rNPR1) (rat, UniProt P18910 29-469, limits assumed)
# T6 construct: Soluble antigen
# T6 sequence: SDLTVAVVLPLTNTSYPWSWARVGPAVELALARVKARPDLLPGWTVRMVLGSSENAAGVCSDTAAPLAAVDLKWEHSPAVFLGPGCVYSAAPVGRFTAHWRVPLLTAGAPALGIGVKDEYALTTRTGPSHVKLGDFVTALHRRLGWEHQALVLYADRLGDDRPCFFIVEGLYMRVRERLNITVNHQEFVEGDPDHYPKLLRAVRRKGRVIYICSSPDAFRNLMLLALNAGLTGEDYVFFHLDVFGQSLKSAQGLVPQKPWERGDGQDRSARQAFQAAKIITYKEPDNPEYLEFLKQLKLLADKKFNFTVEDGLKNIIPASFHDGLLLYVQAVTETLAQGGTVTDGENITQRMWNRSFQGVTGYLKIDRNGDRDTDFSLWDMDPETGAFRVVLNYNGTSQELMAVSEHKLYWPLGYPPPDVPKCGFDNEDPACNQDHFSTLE
# T7: rNPR1-ANP complex (rat, UniProt P01160 124-151 (human entry), limits assumed)
# T7 construct: rNPR1 antigen in the presence of ANP; also called rNPR1 + 100 nM ANP
# T7 sequence: T6 sequence
# T7 sequence (peptide): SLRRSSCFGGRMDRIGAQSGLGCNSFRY
# T8: human NPR1 on CHO-K1 cells in the presence of ANP (human, UniProt P01160 124-151)
# T8 construct: also called hNPR1 CHO K1 + 100 nM ANP
# T8 sequence: T1 sequence
# T8 sequence (peptide): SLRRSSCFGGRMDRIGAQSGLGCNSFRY
# B1: WW03 (FabCys format) (Fab, V domains shown)
# VH: QVQLLESGGGLVQPGGSLRLSCAASGFTFSSYWMNWVRQAPGKGLEWVSAISSDGSYTYYADSVKGRFTISRDNSKNTLYLQMNSLRAEDTAVYYCARDRYSMIYSYGAGAFDYWGQGTLVTVSS
# VL: DIQMTQSPSSLSASVGDRVTITCRASQGISSYLAWYQQKPGKAPKLLIYTASTLQSGVPSRFSGSGSGTDFTLTISSLQPEDFATYYCMQSYEKPRTFGQGTKVEIK
# notes: Monovalent FabCys
# B2: WW03 (IgG format) (antibody, V domains shown)
# VH: B1 VH
# VL: DIQMTQSPSSLSASVGDRVTITCRASQGISSYLAWYQQKPGKAPKLLIYTASTLQSGVPSRFSGSGSGTDFTLTISSLQPEDFATYYCMQSYEKPRTFGQGTKVEIKR
# notes: also called WW03_LALA
# How the values were obtained:
# [1] = biological target: T1, human NPR1 on CHO-K1 cells; assay: cell-based or functional assay
# [2] = biological target: T2, human NPR3 (counter target); assay: FabCys affinity determination
# [3] = biological target: T3, human NPR3 in the presence of ANP; assay: FabCys affinity determination
# [4] = biological target: T4, human Natriuretic Peptide Receptor 1 …; assay: FabCys affinity (Biacore per paragraph 323)
# hNPR1-ANP complex [5] = biological target: T5, hNPR1-ANP complex; assay: FabCys affinity (Biacore per paragraph 323)
# rat NPR1 (rNPR1) [6] = biological target: T6, rat NPR1 (rNPR1); assay: FabCys affinity (Biacore per paragraph 323)
# rNPR1-ANP complex [7] = biological target: T7, rNPR1-ANP complex; assay: FabCys affinity (Biacore per paragraph 323)
# [8] = biological target: T4, human Natriuretic Peptide Receptor 1 …; assay: FabCys, parental value by Biacore, as in Table 5
# hNPR1-ANP complex [9] = biological target: T5, hNPR1-ANP complex; assay: FabCys, parental value by Biacore, as in Table 5
# rat NPR1 (rNPR1) [10] = biological target: T6, rat NPR1 (rNPR1); assay: FabCys, parental value by Biacore, as in Table 5
# rNPR1-ANP complex [11] = biological target: T7, rNPR1-ANP complex; assay: FabCys, parental value by Biacore, as in Table 5
# [12] = biological target: T4, human Natriuretic Peptide Receptor 1 …; assay: ELISA, IgG
# hNPR1-ANP complex [13] = biological target: T5, hNPR1-ANP complex; assay: ELISA, IgG
# [14] = biological target: T8, human NPR1 on CHO-K1 cells in the …; assay: flow cytometry, hNPR1 CHO-K1 cells, IgG
# [15] = biological target: T2, human NPR3 (counter target); assay: ELISA, IgG titrated on coated antigen, fluorescence [Cont.]
# [16] = biological target: T3, human NPR3 in the presence of ANP; assay: ELISA, IgG titrated on coated antigen with ANP (250 fold molar excess), fluorescence [Cont.]
binder,measurement,setting,value
B1,"cGMP conc [nM] at 2 µM FabCys, +0.075 nM ANP",[1],108 nM
same,"cGMP conc [nM] at 2 µM FabCys, without ANP",[1],32 nM
same,binding result,[2],no binding
same,binding result,[3],no binding
same,Kd,[4],1 µM
same,Kd,hNPR1-ANP complex [5],0.0001 µM
same,Kd,rat NPR1 (rNPR1) [6],2.6 µM
same,Kd,rNPR1-ANP complex [7],0.001 µM
same,Kd,[8],1 µM
same,Kd,hNPR1-ANP complex [9],0.0001 µM
same,Kd,rat NPR1 (rNPR1) [10],2.6 µM
same,Kd,rNPR1-ANP complex [11],0.001 µM
B2,EC50,[12],0.0427 µM
same,EC50,hNPR1-ANP complex [13],0.0014 µM
same,flow cytometry S/BG at 2 µM IgG,[14],214 S/BG
same,binding result,[15],no binding (tested: 1000 nM)
same,binding result,[16],no binding (tested: 1000 nM)
